Reference: patent US6855515 (MERCK, dated 2005)

What was measured:
Assay in all cases: Ki printed in running text; no assay described
[1] = target: T1, caspase-1 (UniProt P29466 120-297; P29466 317-404, limits assumed)
T1 sequence (looked up) 1: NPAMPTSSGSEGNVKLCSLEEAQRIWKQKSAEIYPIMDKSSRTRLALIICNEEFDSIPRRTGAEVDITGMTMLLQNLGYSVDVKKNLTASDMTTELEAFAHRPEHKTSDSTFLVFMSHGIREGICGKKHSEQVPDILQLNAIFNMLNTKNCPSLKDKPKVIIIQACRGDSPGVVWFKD
T1 sequence (looked up) 2: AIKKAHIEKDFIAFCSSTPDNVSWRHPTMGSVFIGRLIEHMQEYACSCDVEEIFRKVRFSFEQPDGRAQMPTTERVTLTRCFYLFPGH

[2] = target: T2, caspase-10 (UniProt Q92851 220-521, limits assumed)
T2 sequence (looked up): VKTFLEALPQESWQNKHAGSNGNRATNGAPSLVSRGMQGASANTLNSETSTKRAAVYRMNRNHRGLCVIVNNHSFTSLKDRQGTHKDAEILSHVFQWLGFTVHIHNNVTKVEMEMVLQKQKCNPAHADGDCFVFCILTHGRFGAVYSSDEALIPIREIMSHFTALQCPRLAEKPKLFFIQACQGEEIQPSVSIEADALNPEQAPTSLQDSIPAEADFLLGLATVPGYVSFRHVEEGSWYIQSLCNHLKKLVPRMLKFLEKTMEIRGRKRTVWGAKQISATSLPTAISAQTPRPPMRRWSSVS

[3] = target: T3, caspase-7 (UniProt P55210 24-198; P55210 207-303, limits assumed)
T3 sequence (looked up) 1: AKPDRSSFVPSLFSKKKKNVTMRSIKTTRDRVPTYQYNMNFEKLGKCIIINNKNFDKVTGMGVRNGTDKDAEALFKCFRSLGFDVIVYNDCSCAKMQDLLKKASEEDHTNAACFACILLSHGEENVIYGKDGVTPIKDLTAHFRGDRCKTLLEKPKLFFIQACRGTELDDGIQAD
T3 sequence (looked up) 2: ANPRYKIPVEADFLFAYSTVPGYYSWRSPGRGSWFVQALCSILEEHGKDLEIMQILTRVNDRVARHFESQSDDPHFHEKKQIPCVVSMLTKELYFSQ

[4] = target: T4, caspase-8 (UniProt Q14790 217-374; Q14790 385-479, limits assumed)
T4 construct: also called purified caspase-8
T4 sequence (Q14790 217-374 limits assumed, form in doubt, chain 1 of 2): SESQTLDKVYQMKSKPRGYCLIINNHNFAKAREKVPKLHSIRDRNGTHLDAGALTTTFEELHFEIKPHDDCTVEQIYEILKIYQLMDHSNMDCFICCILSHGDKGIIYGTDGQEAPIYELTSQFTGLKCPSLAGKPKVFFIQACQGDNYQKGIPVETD
T4 sequence (Q14790 385-479 limits assumed, form in doubt, chain 2 of 2): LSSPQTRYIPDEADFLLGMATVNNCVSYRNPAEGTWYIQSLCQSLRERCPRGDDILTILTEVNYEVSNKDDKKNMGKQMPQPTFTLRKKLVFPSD

Binder | Ki [1] | Ki [2] | Ki [3] | Ki [4]
Ac-DEVD-aldehyde [Ac-DEVD-CHO, N-(N-Ac-Asp-Glu-Val)-3-amino-4-oxobutanoic acid] | 17 nM | 12 nM | 1 nM | 0.92 nM
Ac-YVAD-aldehyde [Ac-YVAD-CHO, N-(N-Ac-Tyr-Val-Ala)-3-amino-4-oxobutanoic acid] | 0.6 nM | 408 nM |  | 
